Source: patent publication US20230357429A1 (JANUX THERAPEUTICS, published 2023)
Positions count from the first letter of the chain named. Numbers in names are those of the source. Like-named read-outs stand apart in the source and are kept apart here. Where no end group is shown, it is not given here.

Key:
[1] = target: T1, Human TROP2 ECD (31-274 AA), biotinylated (human, UniProt P09758 31-274, biotinylated (site not stated)); test: ELISA: biotinylated TROP2 captured on neutravidin plate, Fab titrated, HRP secondary antibody
T1 construct: also called tumor-associated calcium signal transducer 2; Human TROP2-biotin
T1 sequence: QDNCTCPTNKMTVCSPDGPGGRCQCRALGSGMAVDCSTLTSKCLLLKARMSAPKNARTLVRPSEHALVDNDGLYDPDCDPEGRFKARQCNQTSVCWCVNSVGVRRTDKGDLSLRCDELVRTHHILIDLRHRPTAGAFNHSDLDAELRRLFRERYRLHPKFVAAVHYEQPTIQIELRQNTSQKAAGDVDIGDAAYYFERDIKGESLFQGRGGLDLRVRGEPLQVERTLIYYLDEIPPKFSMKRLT

[2] = target: T1, Human TROP2 ECD (31-274 AA), …; test: ELISA, ratio of EC50 to that of TBD-1 wt
Method: (§1) Binding was detected using a standard horse radish peroxidase secondary antibody. The concentration of the TBD required to achieve 50% maximal signal (EC₅₀) was calculated.

[3] = target: T1, Human TROP2 ECD (31-274 AA), …; test: BLI (Octet), dissociation half-life from biotinylated human TROP2 ECD
Method: (§2) Kinetic binding was measured using biolayer interferometry (BLI). […] The TBDs diluted in buffer were then associated onto the antigen loaded biosensors. Sensors were then transferred to buffer where the TBD constructs then dissociated from the sensors. Association and dissociation rates were measured in real time using an Octet® instrument.

[4] = target: T1, Human TROP2 ECD (31-274 AA), …; test: ELISA, biotinylated TROP2 ECD on neutravidin plate, Fab titrated
Method: as §1

[5] = target: T1, Human TROP2 ECD (31-274 AA), …; test: BLI (Octet), biotinylated human TROP2 ECD on SAX sensor, Fab 6.25-50 nM
Method: as §2

[6] = target: T1, Human TROP2 ECD (31-274 AA), …; test: ELISA: biotinylated TROP2 captured on neutravidin plate, Fab titrated, HRP secondary antibody; remark: listed apart in the source
Method: as §1

[7] = target: T1, Human TROP2 ECD (31-274 AA), …; test: BLI (Octet), biotinylated human TROP2 ECD on SAX sensor, Fab 6.25-50 nM; remark: listed apart in the source
Method: as §2

[8] = target: T1, Human TROP2 ECD (31-274 AA), …; test: ELISA, ratio of EC50 to that of TBD-1 wt; remark: listed apart in the source
Method: as §1

[9] = target: T1, Human TROP2 ECD (31-274 AA), …; test: BLI (Octet), dissociation half-life from biotinylated human TROP2 ECD; remark: listed apart in the source
[10] = target: T1, Human TROP2 ECD (31-274 AA), …; test: ELISA, biotinylated TROP2 ECD on neutravidin plate, Fab titrated; remark: listed apart in the source
Method: as §1

Peptide-3 [11] = target: T2, Peptide-3 (cysteine pairing not given here; also: biotinylated, site not given here); test: ELISA, Fab on captured biotin-peptide
T2 peptide: IDFCMLYNWPICAG

Peptide-5 = target: T3, Peptide-5 (cysteine pairing not given here; also: biotinylated, site not given here); test: ELISA, Fab on captured biotin-peptide
T3 peptide: VDFCKLYNWPVCQT

Peptide-4 = target: T4, Peptide-4 (cysteine pairing not given here; also: biotinylated, site not given here); test: ELISA, Fab on captured biotin-peptide
T4 peptide: VDFCKIYAWPICGS

Peptide-8 [12] = target: T5, Peptide-8 (cysteine pairing not given here; also: biotinylated, site not given here); test: ELISA, Fab on captured biotin-peptide
T5 peptide: VDFCGLYHWPICYQ

Peptide-12 = target: T6, Peptide-12 (cysteine pairing not given here; also: biotinylated (site not given here)); test: ELISA, Fab on captured biotin-peptide
T6 peptide: PDFCAVYRWPICYQ

Peptide-18 = target: T7, Peptide-18 (cysteine pairing not given here; also: biotinylated (site not given here)); test: ELISA, Fab on captured biotin-peptide
T7 peptide: MDFCQIYDWPICRL

Peptide-17 = target: T8, Peptide-17 (cysteine pairing not given here; also: biotinylated (site not given here)); test: ELISA, Fab on captured biotin-peptide
T8 peptide: IDFCLLYDWPICGR

Peptide-6 = target: T9, Peptide-6 (cysteine pairing not given here; also: biotinylated, site not given here); test: ELISA, Fab on captured biotin-peptide
T9 peptide: IDFCLIYNWPVCDT

Peptide-7 = target: T10, Peptide-7 (cysteine pairing not given here; also: biotinylated, site not given here); test: ELISA, Fab on captured biotin-peptide
T10 peptide: EDFCKLYNWPICYQ

Peptide-25 [13] = target: T11, Peptide-25 (cysteine pairing not given here; also: biotinylated (site not given here)); test: ELISA, Fab on captured biotin-peptide
T11 peptide: VDFCKIYSWPVCHQ

Peptide-14 = target: T12, Peptide-14 (cysteine pairing not given here; also: biotinylated (site not given here)); test: ELISA, Fab on captured biotin-peptide
T12 peptide: LDFCKIYDWPICHL

Peptide-10 = target: T13, Peptide-10 (cysteine pairing not given here; also: biotinylated (site not given here)); test: ELISA, Fab on captured biotin-peptide
T13 peptide: IDFCAIYQWPVCRS

Peptide-2 = target: T14, Peptide-2 (cysteine pairing not given here; also: biotinylated (site not given here)); test: ELISA, Fab on captured biotin-peptide
T14 peptide: IDFCAVYKWPVCQV

Peptide-1 = target: T15, Peptide-1 (cysteine pairing not given here; also: biotinylated (site not given here)); test: ELISA, Fab on captured biotin-peptide
T15 peptide: IDFCAMYQWPICDT

Peptide-20 = target: T16, Peptide-20 (cysteine pairing not given here; also: biotinylated (site not given here)); test: ELISA, Fab on captured biotin-peptide
T16 peptide: VDFCSFYRWPICET

Peptide-13 = target: T17, Peptide-13 (cysteine pairing not given here; also: biotinylated (site not given here)); test: ELISA, Fab on captured biotin-peptide
T17 peptide: VDFCELYRWPICNS

[14] = target: T18, Human TROP2 ECD (31-274 AA), biotinylated (human, UniProt P09758 31-274, biotinylated (site not stated)); test: ELISA, Fab on captured biotin-TROP2
T18 construct: captured on neutravidin plates; also called TROP2-biotin; Trop2-biotin
T18 sequence: T1 sequence

[15] = target: T18, Human TROP2 ECD (31-274 AA), …; test: ELISA, Fab on captured biotin-TROP2; remark: listed apart in the source
Peptide-3 [16] = target: T2, Peptide-3; test: ELISA, Fab on captured biotin-peptide
Method: (§3) Binding was measured in a standard ELISA format. […] Bound TBDs were detected using a standard horse radish peroxidase conjugate secondary antibody. The ELISA signal was plotted versus the log-scale concentration of TBD. The concentrations of TBD required to observe half maximal binding signal (EC₅₀s) were calculated using Graphpad Prism software.

Peptide-64 = target: T19, Peptide-64 (cysteine pairing not given here; also: biotinylated, site not given here); test: ELISA, Fab on captured biotin-peptide
T19 peptide: PDFCAVYRWPICYQ

Peptide-38 = target: T20, Peptide-38 (cysteine pairing not given here; also: biotinylated, site not given here); test: ELISA, Fab on captured biotin-peptide
T20 peptide: VDFCSIYHWPVCYV

Peptide-32 = target: T21, Peptide-32 (cysteine pairing not given here; also: biotinylated, site not given here); test: ELISA, Fab on captured biotin-peptide
T21 peptide: PDFCYMYGWPICDS

Peptide-8 [17] = target: T5, Peptide-8; test: ELISA, Fab on captured biotin-peptide
Method: as §3

Peptide-62 = target: T22, Peptide-62 (cysteine pairing not given here; also: biotinylated, site not given here); test: ELISA, Fab on captured biotin-peptide
T22 peptide: IDFCAVYKWPVCQV

Peptide-35 = target: T23, Peptide-35 (cysteine pairing not given here; also: biotinylated, site not given here); test: ELISA, Fab on captured biotin-peptide
T23 peptide: EDFCYWYQWPICSD

Peptide-25 [18] = target: T11, Peptide-25; test: ELISA, Fab on captured biotin-peptide
Method: as §3

Peptide-63 = target: T24, Peptide-63 (cysteine pairing not given here; also: biotinylated, site not given here); test: ELISA, Fab on captured biotin-peptide
T24 peptide: IDFCLIYNWPVCDT

Peptide-40 = target: T25, Peptide-40 (cysteine pairing not given here; also: biotinylated, site not given here); test: ELISA, Fab on captured biotin-peptide
T25 peptide: VDFCYLYSWPICTK

Peptide-41 = target: T26, Peptide-41 (cysteine pairing not given here; also: biotinylated, site not given here); test: ELISA, Fab on captured biotin-peptide
T26 peptide: VDFCGLYHWPICYQVY

Peptide-36 = target: T27, Peptide-36 (cysteine pairing not given here; also: biotinylated, site not given here); test: ELISA, Fab on captured biotin-peptide
T27 peptide: VDFCYQYGWPICSR

Peptide-33 = target: T28, Peptide-33 (cysteine pairing not given here; also: biotinylated, site not given here); test: ELISA, Fab on captured biotin-peptide
T28 peptide: PDFCYMYNWPVCVT

Peptide-37 = target: T29, Peptide-37 (cysteine pairing not given here; also: biotinylated, site not given here); test: ELISA, Fab on captured biotin-peptide
T29 peptide: VDFCYLYNWPVCSK

Peptide-42 = target: T30, Peptide-42 (cysteine pairing not given here; also: biotinylated, site not given here); test: ELISA, Fab on captured biotin-peptide
T30 peptide: IDFCAMYHWPICDT

Peptide-39 = target: T31, Peptide-39 (cysteine pairing not given here; also: biotinylated, site not given here); test: ELISA, Fab on captured biotin-peptide
T31 peptide: VDFCGLYHWPICYQVD

Peptide-43 = target: T32, Peptide-43 (cysteine pairing not given here; also: biotinylated, site not given here); test: ELISA, Fab on captured biotin-peptide
T32 peptide: VDFCALYHWPICYQ

B1: TBD-11 (anti-TROP2 Fab, HC R98A) (Fab, V domains shown)
VH: QVQLQQSGSELKKPGASVKVSCKASGYTFTNYGMNWVKQAPGQGLKWMGWINTYTGEPTYTDDFKGRFAFSLDTSVSTAYLQISSLKADDTAVYFCAAGGFGSSYWYFDVWGQGSLVTVSS
VL: DIQLTQSPSSLSASVGDRVSITCKASQDVSIAVAWYQQKPGKAPKLLIYSASYRYTGVPDRFSGSGSGTDFTLTISSLQPEDFAVYYCQQHYITPLTFGAGTKVEIKR
notes: also called TBD-11 (HC R98A mutant)
[1]
  EC50: 3.8 nM
[2]
  Fold shift in EC50 relative to wt: 19 fold
[3]
  t1/2: 10 min
[4]
  EC50: 3.8 nM
[5]
  Kd: 3.88 nM

B2: TBD-15 (anti-TROP2 Fab, HC G102A) (Fab, V domains shown)
VH: B1 VH with A98R, G102A
VL: B1 VL
[2]
  Fold shift in EC50 relative to wt: 361 fold
[3]
  t1/2: 1 min
[4]
  EC50: 72.2 nM
[5]
  Kd: 5.71 nM
[6]
  EC50: 72.2 nM

B3: TBD-17 (anti-TROP2 Fab, HC S104A) (Fab, V domains shown)
VH: B1 VH with A98R, S104A
VL: B1 VL
notes: also called TBD-17 (HC S104A mutant)
[7]
  Kd: 0.9 nM
[8]
  Fold shift in EC50 relative to wt: 2 fold
[9]
  t1/2: 24 min
[10]
  EC50: 0.4 nM
[6]
  EC50: 0.432 nM

B4: TBD-14 (anti-TROP2 Fab, HC F101A) (Fab, V domains shown)
VH: B1 VH with A98R, F101A
VL: B1 VL
[2]
  Fold shift in EC50 relative to wt: 193 fold
[3]
  t1/2: 4 min
[4]
  EC50: 38.6 nM
[5]
  Kd: 18.7 nM
[6]
  EC50: 38.6 nM

B5: TBD-22 (HC D109A) (Fab, V domains shown)
VH: B1 VH with A98R, D109A
VL: B1 VL
notes: Fab; also called HC D109A mutant
Peptide-3 [11]
  EC50: 1.6 nM
Peptide-5
  EC50: 0.9 nM
Peptide-4
  EC50: 1.2 nM
Peptide-8 [12]
  EC50: 0.6 nM
Peptide-12
  EC50: 0.6 nM
Peptide-18
  EC50: 7.8 nM
Peptide-17
  EC50: 2.6 nM
Peptide-6
  EC50: 1.4 nM
Peptide-7
  EC50: 3.6 nM
Peptide-25 [13]
  EC50: 1.9 nM
Peptide-14
  EC50: 5.3 nM
Peptide-10
  EC50: 1 nM
Peptide-2
  EC50: 1.1 nM
Peptide-1
  EC50: 1 nM
Peptide-20
  EC50: 5.3 nM
Peptide-13
  EC50: 3.9 nM
[14]
  EC50: 1.1 nM
[15]
  EC50: 1.1 nM
Peptide-3 [16]
  EC50: 3 nM
Peptide-64
  EC50: 1.7 nM
Peptide-38
  EC50: 2 nM
Peptide-32
  EC50: 2.1 nM
Peptide-8 [17]
  EC50: 0.6 nM
Peptide-62
  EC50: 0.9 nM
Peptide-35
  EC50: 7.7 nM
Peptide-25 [18]
  EC50: 2.8 nM
Peptide-63
  EC50: 1.7 nM
Peptide-40
  EC50: 4.6 nM
Peptide-41
  EC50: 6 nM
Peptide-36
  EC50: 2.2 nM
Peptide-33
  EC50: 1.5 nM
Peptide-37
  EC50: 1.7 nM
Peptide-42
  EC50: 0.8 nM
Peptide-39
  EC50: 4.6 nM
Peptide-43
  EC50: 0.9 nM

B6: TBD-12 (anti-TROP2 Fab, HC G99A) (Fab, V domains shown)
VH: B1 VH with A98R, G99A
VL: B1 VL
[1]
  EC50: 0.2 nM
[2]
  Fold shift in EC50 relative to wt: 1 fold
[3]
  t1/2: 39 min
[4]
  EC50: 0.2 nM
[5]
  Kd: 0.492 nM

B7: TBD-16 (anti-TROP2 Fab, HC S103A) (Fab, V domains shown)
VH: B1 VH with A98R, S103A
VL: B1 VL
[2]
  Fold shift in EC50 relative to wt: 1 fold
[3]
  t1/2: 103 min
[4]
  EC50: 0.2 nM
[5]
  Kd: 0.211 nM
[6]
  EC50: 0.177 nM

B8: TBD-20 (anti-TROP2 Fab, HC Y107A) (Fab, V domains shown)
VH: B1 VH with A98R, Y107A
VL: B1 VL
[7]
  Kd: 6.34 nM
[8]
  Fold shift in EC50 relative to wt: 262 fold
[9]
  t1/2: 10 min
[10]
  EC50: 52.3 nM
[6]
  EC50: 52.2 nM
